Assay results from the supplement of paper PMC10567573.

B1: ZBED1 (parent)
chain: EQVFSLGDGVSGGFFGIRDSSFL

Variants of: B1
Experiment: protein stability index of a GFP-peptide fusion (GPS, HEK-293T) (PSI 1-6); higher = more stable
Conditions: c terminus: native
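Further: lentivirally expressed fusions sorted by FACS into six bins by GFP to DsRed ratio, PSI derived from sequencing read proportions per bin multiplied by bin number.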

Variant	protein stability index
EQVFSLGDGVSGGFFGLRDSSFL	3.68
EQVFSLGDGVSGGFFGSRDSSFL	4.2
EQVFSLGDGVSGGFFGYRDSSFL	3.28
EQVFSLGDGVSGGFFGHRDSSFL	4.03
EQVFSLGDGVSGGFFGDRDSSFL	4.55
EQVFSLGDGVSGGFFGTRDSSFL	4.3
EQVFSLGDGVSGGFFGPRDSSFL	4
EQVFSLGDGVSGGFFGNRDSSFL	4.02
EQVFSLGDGVSGGFFGKRDSSFL	3.8
EQVFSLGDGVSGGFFGRRDSSFL	4.2
EQVFSLGDGVSGGFFGERDSSFL	4.71
EQVFSLGDGVSGGFFGQRDSSFL	4.31
EQVFSLGDGVSGGFFGFRDSSFL	3.42
EQVFSLGDGVSGGFFGGRDSSFL	4.17
EQVFSLGDGVSGGFFGVRDSSFL	3.87
EQVFSLGDGVSGGFFGARDSSFL	4.37
EQVFSLGDGVSGGFFGCRDSSFL	3.76
EQVFSLGDGVSGGFFGMRDSSFL	3.75
EQVFSLGDGVSGGFFGWRDSSFL	3.52
EQVFSLGDGVSGGFFGIADSSFL	2.92
EQVFSLGDGVSGGFFGITDSSFL	3.32
EQVFSLGDGVSGGFFGICDSSFL	1.98
EQVFSLGDGVSGGFFGINDSSFL	3.9
EQVFSLGDGVSGGFFGIPDSSFL	3.28
EQVFSLGDGVSGGFFGIVDSSFL	2.14

Variant	protein stability index
EQVFSLGDGVSGGFFGIDDSSFL	3.98
EQVFSLGDGVSGGFFGIKDSSFL	3.96
EQVFSLGDGVSGGFFGILDSSFL	2.78
EQVFSLGDGVSGGFFGIFDSSFL	2.07
EQVFSLGDGVSGGFFGIEDSSFL	3.93
EQVFSLGDGVSGGFFGISDSSFL	3.65
EQVFSLGDGVSGGFFGIQDSSFL	3.38
EQVFSLGDGVSGGFFGIHDSSFL	2.62
EQVFSLGDGVSGGFFGIWDSSFL	2.21
EQVFSLGDGVSGGFFGIGDSSFL	3.42
EQVFSLGDGVSGGFFGIIDSSFL	2.26
EQVFSLGDGVSGGFFGIMDSSFL	2.71
EQVFSLGDGVSGGFFGIYDSSFL	2.49
EQVFSLGDGVSGGFFGIRKSSFL	3.4
EQVFSLGDGVSGGFFGIRVSSFL	2.65
EQVFSLGDGVSGGFFGIRLSSFL	2.1
EQVFSLGDGVSGGFFGIRTSSFL	1.85
EQVFSLGDGVSGGFFGIRPSSFL	2.15
EQVFSLGDGVSGGFFGIRESSFL	2.92
EQVFSLGDGVSGGFFGIRNSSFL	2.75
EQVFSLGDGVSGGFFGIRGSSFL	2.87
EQVFSLGDGVSGGFFGIRMSSFL	1.77
EQVFSLGDGVSGGFFGIRYSSFL	2.57
EQVFSLGDGVSGGFFGIRQSSFL	2.15
EQVFSLGDGVSGGFFGIRSSSFL	1.68

Variant	protein stability index
EQVFSLGDGVSGGFFGIRASSFL	1.3
EQVFSLGDGVSGGFFGIRFSSFL	3.4
EQVFSLGDGVSGGFFGIRISSFL	1.82
EQVFSLGDGVSGGFFGIRHSSFL	2.19
EQVFSLGDGVSGGFFGIRCSSFL	2.26
EQVFSLGDGVSGGFFGIRRSSFL	2.78
EQVFSLGDGVSGGFFHIRDSSFL	3.56
EQVFSLGDGVSGGFFFIRDSSFL	1.91
EQVFSLGDGVSGGFFYIRDSSFL	2.29
EQVFSLGDGVSGGFFRIRDSSFL	3.14
EQVFSLGDGVSGGFFKIRDSSFL	3.29
EQVFSLGDGVSGGFFWIRDSSFL	1.76
EQVFSLGDGVSGGFFQIRDSSFL	2.93
EQVFSLGDGVSGGFFVIRDSSFL	1.85
EQVFSLGDGVSGGFFLIRDSSFL	2.8
EQVFSLGDGVSGGFFTIRDSSFL	2.77
EQVFSLGDGVSGGFFMIRDSSFL	2.17
EQVFSLGDGVSGGFFNIRDSSFL	3.46
EQVFSLGDGVSGGFFAIRDSSFL	2.62
EQVFSLGDGVSGGFFDIRDSSFL	3.77
EQVFSLGDGVSGGFFIIRDSSFL	1.57
EQVFSLGDGVSGGFFEIRDSSFL	2.83
EQVFSLGDGVSGGFFPIRDSSFL	2.85
EQVFSLGDGVSGGFFCIRDSSFL	1.84
EQVFSLGDGVSGGFFSIRDSSFL	2.05

Variant	protein stability index
EQVFSLGDGVSGGYFGIRDSSFL	3.18
EQVFSLGDGVSGGVFGIRDSSFL	3
EQVFSLGDGVSGGWFGIRDSSFL	3.44
EQVFSLGDGVSGGFEGIRDSSFL	3.78
EQVFSLGDGVSGGFRGIRDSSFL	4.13
EQVFSLGDGVSGGFDGIRDSSFL	4.15
EQVFSLGDGVSGGFSGIRDSSFL	4.43
EQVFSLGDGVSGGFVGIRDSSFL	3.65
EQVFSLGDGVSGGFGGIRDSSFL	3.85
EQVFSLGDGVSGGFCGIRDSSFL	3.64
EQVFSLGDGVSGGFIGIRDSSFL	3.67
EQVFSLGDGVSGGFHGIRDSSFL	4.11
EQVFSLGDGVSGGFYGIRDSSFL	3.52
EQVFSLGDGVSGGFMGIRDSSFL	3.82
EQVFSLGDGVSGGFPGIRDSSFL	4.25
EQVFSLGDGVSGGFWGIRDSSFL	2.88
EQVFSLGDGVSGGFNGIRDSSFL	4.21
EQVFSLGDGVSGGFKGIRDSSFL	4.1
EQVFSLGDGVSGGFTGIRDSSFL	4.08
EQVFSLGDGVSGGFAGIRDSSFL	4.32
EQVFSLGDGVSGGFLGIRDSSFL	3.7
EQVFSLGDGVSGGFQGIRDSSFL	4.63
